The record followed here is US20180155402A1 (Molecular Partners, published 2018).

In test [1] the target is T1, human serum albumin (human, UniProt P02768 25-609).
T1 construct: also called HSA
The test is described as follows: ProteOn SPR, PBS pH 7.4.

In another test the target is mouse serum albumin (mouse, UniProt P07724 25-608). The test is described as follows: ProteOn SPR, PBS pH 7.4.
The target in test [2] is cynomolgus monkey serum albumin (cynomolgus monkey, UniProt A2V9Z4 25-608). As to the kind of experiment: ProteOn SPR, PBS pH 7.4.
Test [3] has as its target T2, extracellular domain of HER3 (UniProt P21860 20-643).
T2 construct: extracellular domain; also called ErbB3
The test is described as follows: surface plasmon resonance. In general terms: In SPR one partner is held on a chip, and binding of the other changes the refractive index at the surface.

The target of test [4] is T3, extracellular domain of EGFR (UniProt P00533 25-645).
T3 construct: extracellular domain; also called ErbB1; HER1
The test is described as follows: surface plasmon resonance.

Test [5] addresses T4, HER2 on BT474 cells (human, UniProt P04626 23-1255). The test is described as follows: cell-based or functional assay.
Test [6] addresses T4, HER2 on BT474 cells. As to the kind of experiment: cell-based or functional assay. This is another data set of the same source.
In test [7] the target is T1, human serum albumin. The test is described as follows: SPR; Protein #21 at 100 nM.
For test [8], the target named is T5, human HER2 (human, UniProt P04626 23-652, limits assumed).
T5 construct: This is HER2 as used in the surface plasmon resonance experiments; also called ErbB2; Human Epidermal Growth Factor Receptor 2
The test is described as follows: SPR, global fit over several concentrations; Protein #23-His. The method, then: (§1) Its affinity to HER2 was assessed by surface plasmon resonance as described in WO2014/083208.

Test [9] deals with T5, human HER2. The test is described as follows: SPR.
Test [10] has as its target T5, human HER2. The test is described as follows: SPR, global fit over several concentrations; Protein #21-His. The method, then:
as §1

cynomolgus monkey serum albumin, sequence (A2V9Z4 25-608 limits assumed): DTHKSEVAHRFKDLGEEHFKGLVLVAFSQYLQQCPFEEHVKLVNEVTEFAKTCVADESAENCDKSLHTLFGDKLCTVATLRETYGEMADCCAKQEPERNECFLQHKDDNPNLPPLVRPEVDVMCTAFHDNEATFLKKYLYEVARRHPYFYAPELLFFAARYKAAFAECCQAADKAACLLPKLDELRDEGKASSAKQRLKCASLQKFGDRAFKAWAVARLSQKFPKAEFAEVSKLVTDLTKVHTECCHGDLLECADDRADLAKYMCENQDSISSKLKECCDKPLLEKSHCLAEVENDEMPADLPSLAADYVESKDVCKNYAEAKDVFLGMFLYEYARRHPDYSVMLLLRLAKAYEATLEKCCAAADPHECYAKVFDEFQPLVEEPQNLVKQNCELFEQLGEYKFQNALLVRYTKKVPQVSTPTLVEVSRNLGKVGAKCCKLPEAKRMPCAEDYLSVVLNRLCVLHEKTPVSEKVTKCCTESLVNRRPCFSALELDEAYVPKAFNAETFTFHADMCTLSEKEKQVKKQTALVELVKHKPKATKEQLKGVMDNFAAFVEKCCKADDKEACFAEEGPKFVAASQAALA
mouse serum albumin, sequence (P07724 25-608 limits assumed): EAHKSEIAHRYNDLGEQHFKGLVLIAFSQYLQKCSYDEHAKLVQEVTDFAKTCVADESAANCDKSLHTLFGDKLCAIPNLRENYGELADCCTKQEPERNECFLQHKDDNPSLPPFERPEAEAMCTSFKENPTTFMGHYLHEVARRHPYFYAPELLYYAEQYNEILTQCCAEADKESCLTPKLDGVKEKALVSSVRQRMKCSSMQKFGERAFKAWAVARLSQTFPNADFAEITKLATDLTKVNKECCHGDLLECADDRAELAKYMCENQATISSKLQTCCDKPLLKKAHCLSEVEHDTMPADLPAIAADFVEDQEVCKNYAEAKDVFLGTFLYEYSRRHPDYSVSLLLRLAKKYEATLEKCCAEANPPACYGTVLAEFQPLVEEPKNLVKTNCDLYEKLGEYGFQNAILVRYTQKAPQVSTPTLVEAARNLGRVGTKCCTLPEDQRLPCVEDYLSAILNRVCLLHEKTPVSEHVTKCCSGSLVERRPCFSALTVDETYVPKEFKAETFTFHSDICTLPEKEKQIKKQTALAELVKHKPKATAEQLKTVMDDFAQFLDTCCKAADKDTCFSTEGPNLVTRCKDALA

B1: Protein #14-His (designed binder)
chain: MRGSHHHHHHGSDLGKKLLEAARAGQDDEVRELLKAGADVNAKDYFSHTPLHLAARNGHLKIVEVLLKAGADVNAKDFAGKTPLHLAANEGHLEIVEVLLKAGADVNAQDIFGKTPADIAADAGHEDIAEVLQKAA
What is called Kd is a measure of binding affinity in units of concentration. On to B1, for which the Kd (with human serum albumin [1]; in the test with mouse serum albumin; in [2]) was less than 100 nM throughout.

B2: Protein #13-His (designed binder)
chain: MRGSHHHHHHGSDLGKKLLEAARAGQDDEVRELLKAGADVNAKDYFSHTPLHLAARNGHLKIVEVLLKAGADVNAKDFAGKTPLHLAANDGHLEIVEVLLKAGADVNAQDIFGKTPADIAADAGHEDIAEVLQKAA
Consider B2, for which the Kd (with human serum albumin [1]; with mouse serum albumin; in test [2]) was less than 100 nM throughout.

B3: Protein #21 (designed binder)
chain: GSDLGKKLLEAARAGQDDEVRELLKAGADVNAKDYFSHTPLHLAARNGHLKIVEVLLKAGADVNAKDFAGKTPLHLAANEGHLEIVEVLLKAGADVNAQDIFGKTPADIAADAGHEDIAEVLQKAAGSPTPTPTTPTPTPTTPTPTPTGSDLGIKLLFAAAKGQDDEVRELLKAGADVNAKDFQGVTPLHIAAQSGHLEIVEVLLKAGADVNAKDVTGDTPLHLAAQHGHLEIVEVLLKAGADVNAQDERGWTPADLAADWGHEDIAEVLQKAAGSPTPTPTTPTPTPTTPTPTPTGSDLGKKLLEAARAGQDDEVRELLKAGADVNAKDEYGLTPLYLATAHGHLEIVEVLLKAGADVNAVDAIGFTPLHLAAFIGHLEIAEVLLKAGADVNAQDKFGKTPADIAAGAGNEDIAEVLQKAAGSPTPTPTTPTPTPTTPTPTPTGSDLGKKLLEAARAGQDDEVRELLKAGADVNAKDYFSHTPLHLAARNGHLKIVEVLLKAGADVNAKDFAGKTPLHLAANEGHLEIVEVLLKAGADVNAQDIFGKTPADIAADAGHEDIAEVLQKAA
notes: Untagged
B3: the binding result in test [3] is reported as “no binding”. The binding result in test [4] is “no binding”. The “EC50, induction of apoptosis in BT474 cells (Caspase 3/7 activation)” value with HER2 on BT474 cells [5] was found to be 2.4 nM. For the same molecule, in the test with HER2 on BT474 cells [6], the “phosphorylation AKT S124, fold change to PBS (mass spectrometry)” value was 0.99 fold change to PBS; the “phosphorylation AKT S129, fold change to PBS (mass spectrometry)” value was 0.93 fold change to PBS; the “phosphorylation RAF S642, fold change to PBS (mass spectrometry)” value is 0.81 fold change to PBS; the “phosphorylation RAF T631/T638/T640/T641/S642, fold change to PBS (mass spectrometry)” value was 0.48 fold change to PBS. In the test with HER2 on BT474 cells [6], the “phosphorylation RPS6KB1/S6Kinase S441/T444/S447, fold change to PBS (mass spectrometry)” value is 0.63 fold change to PBS; the “phosphorylation RPS6KB1/S6Kinase T444/S447, fold change to PBS (mass spectrometry)” value is 0.92 fold change to PBS; the “phosphorylation mTOR S2448/S2454, fold change to PBS (mass spectrometry)” value is 0.79 fold change to PBS. The same molecule returned a Kd with human serum albumin [7] of 21 nM.

B4: Protein #23-His (designed binder)
chain: MRGSHHHHHHGSDLGKKLLEAARAGQDDEVRELLKAGADVNAKDYFSHTPLHLAARNGHLKIVEVLLKAGADVNAKDFAGKTPLHLAANEGHLEIVEVLLKAGADVNAQDIFGKTPADIAADAGHEDIAEVLQKAAGSPTPTPTTPTPTPTTPTPTPTGSDLGVKLLWAAARGQDDEVRELLKAGADVNAKDFQGITPLHIAATNGHLEIVEVLLKAGADVNAKDITGETPLHHAADSGHLEIVEVLLKAGADVNAQDKAGVTPADLAAAWGHEDIAEVLQKAAGSPTPTPTTPTPTPTTPTPTPTGSDLGKKLLEAARAGQDDEVRELLKAGADVNAKDEYGLTPLYLATAHGHLEIVEVLLKAGADVNAVDAIGFTPLHLAAFIGHLEIAEVLLKAGADVNAQDKFGKTPADIAAGAGNEDIAEVLQKAAGSPTPTPTTPTPTPTTPTPTPTGSDLGKKLLEAARAGQDDEVRELLKAGADVNAKDYFSHTPLHLAARNGHLKIVEVLLKAGADVNAKDFAGKTPLHLAANEGHLEIVEVLLKAGADVNAQDIFGKTPADIAADAGHEDIAEVLQKAA
For the molecule B4, in the test with HER2 on BT474 cells [5], the “IC50, inhibition of BT474 cell proliferation (BrdU)” value turned out to be 2.4 nM. Moreover, the affinity with human HER2 [8], expressed as Kd, was 0.064 nM.

B5: Protein #17-His (designed binder)
chain: MRGSHHHHHHGSDLGKKLLEAARAGQDDEVRELLKAGADVNAKDEYGLTPLYLATAHGHLEIVEVLLKAGADVNAVDAIGFTPLHLAAFIGHLEIAEVLLKAGADVNAQDKFGKTPADIAAGAGNEDIAEVLQKAA
In turn, B5 showed an equilibrium dissociation constant (Kd) with human HER2 [9] of 0.152 nM.

B6: Protein #21-His (designed binder)
chain: MRGSHHHHHHGSDLGKKLLEAARAGQDDEVRELLKAGADVNAKDYFSHTPLHLAARNGHLKIVEVLLKAGADVNAKDFAGKTPLHLAANEGHLEIVEVLLKAGADVNAQDIFGKTPADIAADAGHEDIAEVLQKAAGSPTPTPTTPTPTPTTPTPTPTGSDLGIKLLFAAAKGQDDEVRELLKAGADVNAKDFQGVTPLHIAAQSGHLEIVEVLLKAGADVNAKDVTGDTPLHLAAQHGHLEIVEVLLKAGADVNAQDERGWTPADLAADWGHEDIAEVLQKAAGSPTPTPTTPTPTPTTPTPTPTGSDLGKKLLEAARAGQDDEVRELLKAGADVNAKDEYGLTPLYLATAHGHLEIVEVLLKAGADVNAVDAIGFTPLHLAAFIGHLEIAEVLLKAGADVNAQDKFGKTPADIAAGAGNEDIAEVLQKAAGSPTPTPTTPTPTPTTPTPTPTGSDLGKKLLEAARAGQDDEVRELLKAGADVNAKDYFSHTPLHLAARNGHLKIVEVLLKAGADVNAKDFAGKTPLHLAANEGHLEIVEVLLKAGADVNAQDIFGKTPADIAADAGHEDIAEVLQKAA
notes: also called Protein #31-His
Turning to B6, the “IC50, inhibition of BT474 cell proliferation (BrdU)” value in the test with HER2 on BT474 cells [5] stood at 1.5 nM. Moreover, the Kd with human HER2 [10] is 0.027 nM.

B7: Protein #16-His (designed binder)
chain: MRGSHHHHHHGSDLGIKLLFAAAKGQDDEVRELLKAGADVNAKDFQGVTPLHIAAQSGHLEIVEVLLKAGADVNAKDVTGDTPLHLAAQHGHLEIVEVLLKAGADVNAQDERGWTPADLAADWGHEDIAEVLQKAA
In the case of B7, the dissociation constant Kd in the test with human HER2 [9] came to 0.009 nM.
